T1: PEDF-IgG Fc fusion protein (PEDF-Fc) (human, UniProt P36955 20-418)
T1 sequence (looked up): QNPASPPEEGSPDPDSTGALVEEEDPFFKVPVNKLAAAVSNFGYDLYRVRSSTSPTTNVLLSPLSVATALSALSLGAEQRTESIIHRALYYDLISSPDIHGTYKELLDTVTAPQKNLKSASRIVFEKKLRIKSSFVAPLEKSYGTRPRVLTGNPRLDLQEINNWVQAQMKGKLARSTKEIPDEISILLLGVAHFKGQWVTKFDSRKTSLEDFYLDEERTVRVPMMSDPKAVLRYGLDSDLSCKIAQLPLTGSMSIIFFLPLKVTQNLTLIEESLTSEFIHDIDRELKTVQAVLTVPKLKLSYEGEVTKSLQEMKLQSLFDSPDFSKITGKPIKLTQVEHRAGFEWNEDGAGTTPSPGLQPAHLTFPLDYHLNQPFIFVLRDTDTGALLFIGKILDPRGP


Tests used:
[1] = biological target: T1, PEDF-IgG Fc fusion protein (PEDF-Fc); assay: peptide or protein array
[2] = biological target: T1, PEDF-IgG Fc fusion protein (PEDF-Fc); assay: colorimetric cell binding assay

Binder	binding result [1]	binding result [2]
EKNKRASVRRRIDQSNSHANI [VEGFR-1/Flt-1 amino acid stretch (1), 245-265 (D3), cellulose-bound peptides]	binds	
YDKAFITVKHRKQQVLETVAGKR [VEGFR-1/Flt-1 amino acid stretch (2), 303-325 (D4), cellulose-bound peptides]	binds	
IRGEHCNKKAVFSRISKFKSTRN	binds	

Second part, the binder after the results:

binding result [1]	binding result [2]	Binder
	binds	AFITVKHRKQQVLETVA [peptide AF10]
	binds	NKRASVRRRIDQSNSHA [peptide AE10]

Source: PMC11346174 (Investigative Ophthalmology & Visual Science, 2024)
